Results taken from patent publication US6362326B1, “11 cby genomic sequence” (SmithKline Beecham Corporation, priority 1998, dated 2002).

Target: 11cby polypeptide of SEQ ID NO: 2 (Homo sapiens, UniProt Q99705)
Assay: binding of 11cby polypeptide to melanin-concentrating hormone
Conditions: qualitative statement, method or value not given

Sequence of 11cby polypeptide of SEQ ID NO: 2 (Q99705 whole entry): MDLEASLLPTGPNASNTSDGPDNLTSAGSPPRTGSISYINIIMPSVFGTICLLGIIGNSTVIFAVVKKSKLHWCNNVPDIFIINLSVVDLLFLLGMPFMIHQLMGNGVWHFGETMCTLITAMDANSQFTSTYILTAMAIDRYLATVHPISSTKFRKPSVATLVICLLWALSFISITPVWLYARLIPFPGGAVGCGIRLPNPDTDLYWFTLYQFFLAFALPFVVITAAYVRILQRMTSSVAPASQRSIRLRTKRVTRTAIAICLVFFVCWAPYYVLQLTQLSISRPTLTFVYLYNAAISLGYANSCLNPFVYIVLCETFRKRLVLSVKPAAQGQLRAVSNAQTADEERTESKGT

## H-Asp-Phe-Asp-Met-Leu-Arg-Cys-Met-Leu-Gly-Arg-Val-Tyr-Arg-Pro-Cys-Trp-Gln-Val-OH [MCH]
  binding to 11cby polypeptide (7-transmembrane receptor): bind
